Measurements as given in patent US20210324051A1 (published 2021).

T1: Angola strain MARV GP ectodomain containing the mucin-like domain (Marburg virus, Angola strain, UniProt Q1PD50 19-648)
T1 chain: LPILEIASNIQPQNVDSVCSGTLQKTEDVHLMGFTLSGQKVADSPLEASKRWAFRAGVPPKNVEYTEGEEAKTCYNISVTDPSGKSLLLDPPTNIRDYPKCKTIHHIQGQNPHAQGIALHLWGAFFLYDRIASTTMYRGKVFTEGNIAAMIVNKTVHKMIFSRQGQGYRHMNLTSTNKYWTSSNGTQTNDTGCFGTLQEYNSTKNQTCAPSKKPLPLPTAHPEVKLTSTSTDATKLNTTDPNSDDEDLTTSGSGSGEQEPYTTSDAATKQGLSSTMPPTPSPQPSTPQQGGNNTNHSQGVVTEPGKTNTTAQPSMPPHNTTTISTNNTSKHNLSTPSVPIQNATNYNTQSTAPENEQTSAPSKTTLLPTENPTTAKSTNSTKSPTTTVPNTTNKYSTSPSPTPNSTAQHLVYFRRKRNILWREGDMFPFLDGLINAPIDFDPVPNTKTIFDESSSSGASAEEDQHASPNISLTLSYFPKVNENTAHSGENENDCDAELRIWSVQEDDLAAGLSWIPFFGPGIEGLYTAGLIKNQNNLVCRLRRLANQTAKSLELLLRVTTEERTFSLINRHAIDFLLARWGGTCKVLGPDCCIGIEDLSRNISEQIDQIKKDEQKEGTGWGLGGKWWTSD

T2: EBOV Mayinga strain GP ectodomain containing the glycan cap and mucin-like domain (Ebola virus, Mayinga strain, UniProt Q05320 33-650)
T2 chain: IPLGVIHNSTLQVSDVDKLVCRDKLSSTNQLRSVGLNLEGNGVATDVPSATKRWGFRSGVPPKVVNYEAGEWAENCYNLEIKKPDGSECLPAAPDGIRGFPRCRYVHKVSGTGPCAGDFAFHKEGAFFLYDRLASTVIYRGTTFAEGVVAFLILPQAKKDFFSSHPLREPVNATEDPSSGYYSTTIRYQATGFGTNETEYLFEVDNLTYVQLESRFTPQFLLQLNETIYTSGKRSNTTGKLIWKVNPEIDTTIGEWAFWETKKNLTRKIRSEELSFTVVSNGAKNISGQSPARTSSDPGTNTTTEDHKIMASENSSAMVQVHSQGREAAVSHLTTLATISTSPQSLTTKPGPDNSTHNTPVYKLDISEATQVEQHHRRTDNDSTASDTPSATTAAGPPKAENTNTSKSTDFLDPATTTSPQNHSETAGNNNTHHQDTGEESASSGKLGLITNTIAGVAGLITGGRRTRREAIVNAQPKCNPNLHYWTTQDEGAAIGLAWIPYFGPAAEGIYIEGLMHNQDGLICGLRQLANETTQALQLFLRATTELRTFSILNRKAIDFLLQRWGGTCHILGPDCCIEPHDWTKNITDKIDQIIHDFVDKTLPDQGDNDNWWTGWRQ

T3: EBOV Mayinga strain cleaved GP ectodomain (Ebola virus, Mayinga strain, UniProt Q05320 33-650)
T3 chain: T2 chain

T4: Ravn strain cleaved MARV GP ectodomain (Marburg virus, Ravn strain, UniProt Q1PDC7 19-648)
T4 chain: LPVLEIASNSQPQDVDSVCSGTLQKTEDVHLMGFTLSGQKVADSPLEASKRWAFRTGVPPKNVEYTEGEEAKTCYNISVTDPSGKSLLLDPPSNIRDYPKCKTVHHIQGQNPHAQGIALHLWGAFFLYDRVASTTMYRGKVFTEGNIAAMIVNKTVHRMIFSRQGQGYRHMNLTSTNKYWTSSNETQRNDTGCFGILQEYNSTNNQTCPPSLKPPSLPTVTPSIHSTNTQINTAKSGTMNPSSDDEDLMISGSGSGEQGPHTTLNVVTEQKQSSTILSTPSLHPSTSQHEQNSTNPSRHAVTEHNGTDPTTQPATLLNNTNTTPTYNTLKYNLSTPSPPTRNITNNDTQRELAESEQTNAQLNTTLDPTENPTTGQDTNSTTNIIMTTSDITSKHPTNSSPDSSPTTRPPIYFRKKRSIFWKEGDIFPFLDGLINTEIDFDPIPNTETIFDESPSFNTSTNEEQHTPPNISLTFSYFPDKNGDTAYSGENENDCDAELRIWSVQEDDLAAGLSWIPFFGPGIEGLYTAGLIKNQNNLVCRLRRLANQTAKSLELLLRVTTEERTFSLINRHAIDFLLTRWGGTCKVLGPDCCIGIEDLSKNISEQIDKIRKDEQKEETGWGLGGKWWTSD

B1: MR201 (antibody, V domains shown)
VH: QLQLQESGPGLVKPSETLFLSCAVSGGSIAGSTHYWGWIRQPPGKGLEWIGSISESGSTYHNPSLKSRVTISVDTSKNYFSLNLSSVTAADTAVYYCARIVGQSGTFIYYYYAMDVWGTGTLVTVSS
VL: DIQLTQSPSFLSASVGDRVTITCRASQGISSYLAWYQQKPGKAPKLLIYAASTLQRGVPSRFSGSGSGTEFTLTISSLQPEDSATYYCQQLNSYLALIFGGGT
B2: MR78 human monoclonal antibody (antibody, V domains shown)
VH: QLQLQESGPGLVKPSETLSLTCTVSGGSISSSSYYWGWIRQPPGKGLEWIGSVYYSGGASYNPSLKSRATISVDTSKNQFSLNLDSVSAADTAIYYCASIYGSGTFYYYFYMDVWGKGSTVTVSS
VL: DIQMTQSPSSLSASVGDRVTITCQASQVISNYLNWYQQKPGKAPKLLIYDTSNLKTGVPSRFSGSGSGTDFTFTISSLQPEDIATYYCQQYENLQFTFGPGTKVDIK

What was measured:
Test in all cases: ELISA
[1] = molecular target: T1, Angola strain MARV GP ectodomain …
[2] = molecular target: T2, EBOV Mayinga strain GP ectodomain …
[3] = molecular target: Angola strain MARV GP ectodomain lacking residues 257-425 of the mucin-like domain (Marburg virus, Angola strain, UniProt Q1PD50 19-648)
[4] = molecular target: T3, EBOV Mayinga strain cleaved GP …
[5] = molecular target: T4, Ravn strain cleaved MARV GP ectodomain
[6] = molecular target: EBOV Mayinga strain GP ectodomain lacking residues 314-462 of the mucin-like domain (Ebola virus, Mayinga strain, UniProt Q05320 33-650)

| Binder | EC50 [1] [µg/mL] | EC50 [2] [µg/mL] | EC50 [3] [µg/mL] | EC50 [4] [µg/mL] | EC50 [5] [µg/mL] | EC50 [6] [µg/mL] |
| --- | --- | --- | --- | --- | --- | --- |
| B1 | 1.5 | > 1000 | 1.9 | > 1000 | 0.5 | > 1000 |
| B2 | 1.4 | > 1000 | 2.3 | 107 | 1.1 | > 1000 |
